In US20250084178A1 (ARCUS BIOSCIENCES, published 2025):
Where two headings read alike, the source gives them in different places.

T1: soluble His-tagged human CD39 ECD protein (human, UniProt P49961 38-478)
T1 construct: also called human CD39 ECD His-tagged antigen; Sino Biological Cat. No. 16020-H08B
T1 sequence: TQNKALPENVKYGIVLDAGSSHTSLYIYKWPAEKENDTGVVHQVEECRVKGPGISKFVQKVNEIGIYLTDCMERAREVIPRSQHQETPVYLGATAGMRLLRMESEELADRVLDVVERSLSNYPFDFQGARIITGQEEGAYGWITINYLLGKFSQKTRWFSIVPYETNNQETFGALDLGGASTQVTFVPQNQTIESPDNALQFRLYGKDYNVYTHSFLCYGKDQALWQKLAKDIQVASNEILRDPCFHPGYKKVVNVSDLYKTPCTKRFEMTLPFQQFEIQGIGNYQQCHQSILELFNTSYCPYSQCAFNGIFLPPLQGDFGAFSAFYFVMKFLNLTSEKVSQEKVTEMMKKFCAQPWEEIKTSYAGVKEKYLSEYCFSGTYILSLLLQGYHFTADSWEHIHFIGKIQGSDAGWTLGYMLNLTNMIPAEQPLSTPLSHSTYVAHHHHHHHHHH

T2: human CD39 expressed on the cell surface (human, UniProt P49961 1-510)
T2 construct: full-length human CD39 transfected into CHO-K1, or endogenous human CD39 on primary cells and cell lines, or human CD39 of knock-in mice; also called Human CD39-CHO-K1; cellular human CD39
T2 sequence: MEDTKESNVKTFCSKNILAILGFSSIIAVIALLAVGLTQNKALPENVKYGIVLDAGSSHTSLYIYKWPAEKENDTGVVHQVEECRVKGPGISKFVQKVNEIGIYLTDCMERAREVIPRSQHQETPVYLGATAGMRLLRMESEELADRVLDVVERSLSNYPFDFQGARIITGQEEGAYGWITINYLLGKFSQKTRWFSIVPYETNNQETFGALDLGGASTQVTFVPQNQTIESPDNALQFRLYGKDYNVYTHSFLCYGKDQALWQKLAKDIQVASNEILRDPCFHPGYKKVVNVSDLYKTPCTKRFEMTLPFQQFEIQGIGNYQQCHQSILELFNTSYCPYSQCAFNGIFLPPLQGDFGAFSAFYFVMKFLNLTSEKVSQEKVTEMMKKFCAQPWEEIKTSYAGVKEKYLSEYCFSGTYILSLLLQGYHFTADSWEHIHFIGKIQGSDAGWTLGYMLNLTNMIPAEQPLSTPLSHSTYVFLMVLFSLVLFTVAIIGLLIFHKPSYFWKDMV

T3: cynomolgus monkey CD39 expressed on HEK-293 cells (cynomolgus monkey, UniProt P49961 5-510 (human entry))
T3 construct: also called Cynomolgus Monkey CD39-HEK293
T3 chain: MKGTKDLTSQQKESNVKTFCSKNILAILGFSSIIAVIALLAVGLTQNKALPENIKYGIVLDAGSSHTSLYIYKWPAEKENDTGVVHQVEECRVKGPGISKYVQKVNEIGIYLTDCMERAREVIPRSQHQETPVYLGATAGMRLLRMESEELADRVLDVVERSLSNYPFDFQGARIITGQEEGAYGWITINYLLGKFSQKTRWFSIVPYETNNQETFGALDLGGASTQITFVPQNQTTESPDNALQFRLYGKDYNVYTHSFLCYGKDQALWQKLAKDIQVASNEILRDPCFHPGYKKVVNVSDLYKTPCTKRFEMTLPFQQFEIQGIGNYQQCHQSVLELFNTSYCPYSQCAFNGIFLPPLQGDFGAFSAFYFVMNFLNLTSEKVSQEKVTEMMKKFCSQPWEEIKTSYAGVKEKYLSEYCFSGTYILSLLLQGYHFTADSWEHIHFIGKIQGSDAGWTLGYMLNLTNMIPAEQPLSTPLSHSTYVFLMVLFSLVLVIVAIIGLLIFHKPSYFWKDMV

T4: murine CD39 expressed on HEK-293 cells (murine, UniProt P55772 1-510)
T4 construct: also called mouse CD39
T4 sequence: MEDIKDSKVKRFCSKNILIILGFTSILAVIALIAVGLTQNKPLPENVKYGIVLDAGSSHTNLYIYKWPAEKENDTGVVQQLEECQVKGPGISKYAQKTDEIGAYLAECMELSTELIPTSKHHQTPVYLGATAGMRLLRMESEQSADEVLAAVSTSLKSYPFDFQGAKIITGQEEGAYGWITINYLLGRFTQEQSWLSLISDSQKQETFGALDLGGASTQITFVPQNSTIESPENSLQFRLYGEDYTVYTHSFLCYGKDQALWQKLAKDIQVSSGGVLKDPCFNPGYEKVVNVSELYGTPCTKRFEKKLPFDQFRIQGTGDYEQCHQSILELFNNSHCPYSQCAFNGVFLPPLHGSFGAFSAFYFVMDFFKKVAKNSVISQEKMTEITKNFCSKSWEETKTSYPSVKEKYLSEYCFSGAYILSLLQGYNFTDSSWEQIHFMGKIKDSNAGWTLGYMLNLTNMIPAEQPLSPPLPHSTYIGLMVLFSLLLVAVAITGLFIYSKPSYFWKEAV

T5: recombinant human CD39 (soluble) (human, UniProt P49961 38-478, limits assumed)
T5 sequence (looked up): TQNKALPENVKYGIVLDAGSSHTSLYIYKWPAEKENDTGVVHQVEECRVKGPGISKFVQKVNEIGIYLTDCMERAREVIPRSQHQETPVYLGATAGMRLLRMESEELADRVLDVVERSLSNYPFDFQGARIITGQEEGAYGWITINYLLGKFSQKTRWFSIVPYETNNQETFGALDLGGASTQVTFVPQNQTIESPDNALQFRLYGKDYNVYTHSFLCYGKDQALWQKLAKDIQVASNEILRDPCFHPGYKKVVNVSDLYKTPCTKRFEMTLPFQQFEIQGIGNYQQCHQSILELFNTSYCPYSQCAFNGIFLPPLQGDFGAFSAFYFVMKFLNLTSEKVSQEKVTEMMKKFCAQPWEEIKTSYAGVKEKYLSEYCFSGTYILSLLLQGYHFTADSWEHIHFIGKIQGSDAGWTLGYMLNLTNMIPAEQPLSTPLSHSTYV


What was measured:
[1] = molecular target: T1, soluble His-tagged human CD39 ECD …; test: SPR (Biacore 8K), antibody captured via anti-human Fc, CD39 ECD analyte
[2] = molecular target: T2, human CD39 expressed on the cell surface; test: FACS on CHO-K1 cells overexpressing human CD39
[3] = molecular target: T2, human CD39 expressed on the cell surface; test: cell-based or functional assay
[4] = molecular target: T3, cynomolgus monkey CD39 expressed on …; test: FACS on HEK293 cells overexpressing cynomolgus CD39
[5] = molecular target: T2, human CD39 expressed on the cell surface; test: cell-based or functional assay; remark: listed apart in the source
[6] = molecular target: T2, human CD39 expressed on the cell surface; test: cell-based or functional assay; remark: listed apart in the source
[7] = molecular target: T2, human CD39 expressed on the cell surface; test: flow cytometry on purified human CD14+ monocytes, 400 uM ATP
[8] = molecular target: T2, human CD39 expressed on the cell surface; test: flow cytometry on purified human CD14+ monocytes, 0 uM ATP
[9] = molecular target: T2, human CD39 expressed on the cell surface; test: cell-based or functional assay; remark: listed apart in the source
[10] = molecular target: T1, soluble His-tagged human CD39 ECD …; test: SPR (Biacore 8K), antibody captured via anti-human Fc, CD39 ECD analyte; remark: listed apart in the source
[11] = molecular target: T2, human CD39 expressed on the cell surface; test: cell-based or functional assay; remark: listed apart in the source
[12] = molecular target: T4, murine CD39 expressed on HEK-293 cells; test: FACS on HEK-293 cells overexpressing murine CD39 (method of Example 1)
[13] = molecular target: T1, soluble His-tagged human CD39 ECD …; test: SPR (Biacore 8K), antibody captured via anti-human Fc, CD39 ECD analyte, 25 C
[14] = molecular target: T2, human CD39 expressed on the cell surface; test: FACS on CHO-K1 cells overexpressing human CD39; remark: listed apart in the source
[15] = molecular target: T2, human CD39 expressed on the cell surface; test: cell-based or functional assay; remark: listed apart in the source
[16] = molecular target: T5, recombinant human CD39 (soluble); test: cell-based or functional assay
[17] = molecular target: T3, cynomolgus monkey CD39 expressed on …; test: FACS on HEK293 cells overexpressing cynomolgus CD39

Kd [1] [nM]	koff [1] [s⁻¹]	kon [1] [M⁻¹ s⁻¹]	EC50 [2] [nM]	Human THP-1 CD39 inhibition IC50 [3] [nM]	EC50 [4] [nM]	IC50, CD39 enzymatic inhibition on human monocytes, 20 uM ATP [5] [nM]	Max Inhibition (%), human monocytes, 20 uM ATP [5] [%]	IC50, CD39 enzymatic inhibition on THP-1 cells, 20 uM ATP [6] [nM]	Max Inhibition (%), THP-1 cells [6] [%]	EC50 [7] [nM]	EC50 [8] [nM]	IC50, CD39 enzymatic inhibition on SK-MEL-5 cells, 20 uM ATP [9] [nM]	Max Inhibition (%), SK-MEL-5 cells [9] [%]	Kd [10] [nM]	IC50, CD39 enzymatic inhibition on human monocytes, 400 uM ATP [11] [nM]	Max Inhibition (%), human monocytes, 400 uM ATP [11] [%]	Binder	other results
0.496	0.000615	1.24e+06	1.83	0.25	1.01												hu31.7_IGG4.P (antibody, human IgG4 S228P, kappa, V domains shown, humanized variant of antibody 31 (VH2 + VL2), IgG4 (S228P)) VH: EVQLVQSGAEVKKPGATVKISCKVSGDSITAYFMHWVQQAPGKGLEWMGRIDPDHERTKYAEKFKNRVTITADTSTNTVYMELSSLRSEDTAVYYCATERVPGFETDYWGQGVMVTVSS VL: DIVMTQSPDLAVSLGERATINCRTQQTVDHYGTTYMNWYQQKPGQPPKLLIYLASSLASGVPDRFSGSGSGTDFTLTISSLQAEDVAVYYCQQSRNLWTFGGGTKVEIKR	
0.176			1.7	0.26	0.78	0.59	74	0.095	73	26	16	1.1	71				hu31.4_IGG4.P (antibody, human IgG4 S228P, kappa, humanized variant of antibody 31 (VH1 + VL1), IgG4 (S228P)) heavy: not shown light: DIVLTQSPALAVSPGQRATITCRTQQTVDHYGTTYMNWYQQKPGQPPKLLIYLASSLASGVPARFSGSGSGTDFTLTINPVEADDTANYYCQQSRNLWTFGGGTKVEIKRTVAAPSVFIFPPSDEQLKSGTASVVCLLNNFYPREAKVQWKVDNALQSGNSQESVTEQDSKDSTYSLSSTLTLSKADYEKHKVYACEVTHQGLSSPVTKSFNRGEC	
0.613	0.000684	1.12e+06	1.69	0.3	0.81												hu31.6_IGG4.P (antibody, human IgG4 S228P, kappa, V domains shown, humanized variant of antibody 31 (VH2 + VL1), IgG4 (S228P)) VH: EVQLVQSGAEVKKPGATVKISCKVSGDSITAYFMHWVQQAPGKGLEWMGRIDPDHERTKYAEKFKNRVTITADTSTNTVYMELSSLRSEDTAVYYCATERVPGFETDYWGQGVMVTVSS VL: DIVLTQSPALAVSPGQRATITCRTQQTVDHYGTTYMNWYQQKPGQPPKLLIYLASSLASGVPARFSGSGSGTDFTLTINPVEADDTANYYCQQSRNLWTFGGGTKVEIKR	
														0.0936	0.14	80	hu39.2_IGG4.P (antibody, human IgG4 S228P, kappa, humanized variant of antibody 39 (VH1 + VL1), IgG4 (S228P)) heavy: not shown light: DIVLTQSPASLAVSPGQRATITCRASEGVKSYMHWYQQKPGQPPKLLIYKASNLASGVPARFSGSGSGTDFTLTINPVEADDTANYYCQQSWNDPTFGQGTKLEIKRTVAAPSVFIFPPSDEQLKSGTASVVCLLNNFYPREAKVQWKVDNALQSGNSQESVTEQDSKDSTYSLSSTLTLSKADYEKHKVYACEVTHQGLSSPVTKSFNRGEC	
						0.13	71	0.064	76	10		0.13	60	0.185	0.45	73	hu39.4_IGG4.P (antibody, human IgG4 S228P, kappa, humanized variant of antibody 39 (VH3 + VL1), IgG4 (S228P)) heavy: not shown light: DIVLTQSPASLAVSPGQRATITCRASEGVKSYMHWYQQKPGQPPKLLIYKASNLASGVPARFSGSGSGTDFTLTINPVEADDTANYYCQQSWNDPTFGQGTKLEIKRTVAAPSVFIFPPSDEQLKSGTASVVCLLNNFYPREAKVQWKVDNALQSGNSQESVTEQDSKDSTYSLSSTLTLSKADYEKHKVYACEVTHQGLSSPVTKSFNRGEC	
								0.75	75	49	61	5.4	55				ch19_IGG4.P (antibody, human IgG4 S228P, kappa, V domains shown, rat/human chimera of antibody 19, human IgG4 (S228P), kappa) VH: QVQLKETGPGLVQPTQTLSITCTVSGFSLTSYFTQWVRQTPGKGLEWMGFIRSGGSTQYNSAFKSRLSISRDTSKNQVFLKMNSLKTEDTGVYYCARDRPDYHDGTYGVLDVWGQGASVTVSS VL: DIRMTQSPASLSASLGETVNIECLASEDIDSDLAWYQKKPGKSPQLLIYNGNALQNGVPSRFSGSGSGTHFSLKINSLQSEDVATYFCQQYINYPYTFGGGTKLELRR	binding result [12]: no binding; Kd [13]: 0.443 nM; koff [13]: 0.0004 s⁻¹; kon [13]: 902000 M⁻¹ s⁻¹; EC50 [14]: 9.04 nM; Human THP-1 CD39 inhibition IC50 [15]: 0.44 nM; IC50, inhibition of recombinant CD39 enzymatic activity, 20 uM ATP [16]: 1.8 nM; Max Inhibition (%), recombinant CD39, 20 uM ATP [16]: 100%; EC50 [17]: 4.3 nM
